Substrate in data set [1]: Nc1ncnc2c1ncn2[C@@H]1O[C@H](COP(=O)(O)OP(=O)(O)OP(=O)(O)O)[C@@H](O)[C@H]1O
The data set can be described thus: purified protein. Particulars: 300 μM AMP constant, 2 mM MgCl2, 80 mM KCl, 100 mM Tris pH 7.5, 20°C.

Substrate in data set [2]: Nc1ncnc2c1ncn2[C@@H]1O[C@H](COP(=O)(O)OP(=O)(O)OP(=O)(O)O)[C@@H](O)[C@H]1O
As to the kind of experiment: purified protein. It is filed as biochemical, Saccharomyces cerevisiae. As to conditions: 300 μM AMP constant, 2 mM MgCl2, 80 mM KCl, 100 mM Tris pH 7.5, 20°C.

Setting [3] is: 11 residues STGDMLSAAVK inserted between Lys40 and Ser41.

Positions count from the first letter of the chain named. Names may count otherwise.

B1: Adkeco (Escherichia coli K-12; INS40STGDMLSAAVK/R36S) (protein)
chain: MRIILLGAPGAGKGTQAQFIMEKYGIPQISTGDMLSAAVKSTGDMLSAAVKSGSELGKQAKDIMDAGKLVTDELVIALVKERIAQEDCRNGFLLDGFPRTIPQADAMKEAGINVDYVLEFDVPDELIVDRIVGRRVHAPSGRVYHVKFNPPKVEGKDDVTGEELTTRKDDQEETVRKRLVEYHQMTAPLIGYYSKEAEAGNTKYAKVDGTKPVAEVRADLEKILG
Consider B1, for which, in data set [1] (setting [3]), the Km (commonly the concentration of substrate that gives half-maximal velocity) is 127 ± 30 µM; the turnover number (kcat) (in general, the number of substrate molecules converted per active site and unit of time at saturation) was 2 s⁻¹; the kcat/Km (commonly the turnover number divided by the Michaelis constant) is 20000 M⁻¹ s⁻¹.

B2: Adk1yeast (Saccharomyces cerevisiae S288C) (protein)
chain: SSESIRMVLIGPPGAGKGTQAPNLQERFHAAHLATGDMLRSQIAKGTQLGLEAKKIMDQGGLVSDDIMVNMIKDELTNNPACKNGFILDGFPRTIPQAEKLDQMLKEQGTPLEKAIELKVDDELLVARITGRLIHPASGRSYHKIFNPPKEDMKDDVTGEALVQRSDDNADALKKRLAAYHAQTEPIVDFYKKTGIWAGVDASQPPATVWADILNKLGKD
notes: full-length wild type, recombinant, 15N-enriched, purified as previously described
B2: in data set [2], the Km was found to be 71 ± 18 µM, the kcat worked out at 520 ± 32 s⁻¹ and the kcat/Km worked out at 7.29e+06 ± 470000 M⁻¹ s⁻¹.

B3: Adkeco (Escherichia coli K-12; G56C) (protein)
chain: MRIILLGAPGAGKGTQAQFIMEKYGIPQISTGDMLRAAVKSGSELGKQAKDIMDACKLVTDELVIALVKERIAQEDCRNGFLLDGFPRTIPQADAMKEAGINVDYVLEFDVPDELIVDRIVGRRVHAPSGRVYHVKFNPPKVEGKDDVTGEELTTRKDDQEETVRKRLVEYHQMTAPLIGYYSKEAEAGNTKYAKVDGTKPVAEVRADLEKILG
For B3, in data set [1], the Km was determined as 34 ± 2 µM, the kcat was 36 s⁻¹ and the kcat/Km was determined as 1.04e+06 M⁻¹ s⁻¹.

B4: Adkeco (Escherichia coli K-12; R36A) (protein)
chain: B3 chain with R36A, C56G
Consider B4, for which, in data set [1], the Km amounted to 193 ± 7 µM, the kcat was 19 s⁻¹ and the kcat/Km amounted to 100000 M⁻¹ s⁻¹.

Values taken from publication PMC5028032, “Linkage between Fitness of Yeast Cells and Adenylate Kinase Catalysis” (PLoS ONE, 2016).
